Results as given in the supplement of paper PMC9732359.
± gives the uncertainty stated by the source.

Assay: protein stability index of a GFP-peptide fusion (yeast GPS) (PSI 1-4); higher = more stable; sorted into four equal gates, so the index is relative within each strain
Procedure, shortened: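 Tiled yeast protein peptides of 17 residues were each joined downstream of GFP, on plasmids that also express Cherry. The pooled library was maintained in yeast, and mid-log cultures in leucine-free medium were sorted into four equal gates on the GFP/Cherry ratio. Plasmids from every gate were amplified by PCR and sequenced on Illumina, with barcodes linking reads to strains. The protein stability index of a peptide is its gate-number-weighted read frequency summed over the gates.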

Sequence | protein stability index (doa10∆) | protein stability index (pdr5∆) | protein stability index (san1∆) | protein stability index (ubr1∆)
KSNSTGNISSSTVKKKD [REC8] | 2.96 ± 0.058 | 2.96 ± 0.058 | 2.83 ± 0.039 | 3.02 ± 0.049
KSQEQREHSLQLFRTNK [PRP28] | 3 ± 0.24 | 2.51 ± 0.11 | 2.88 ± 0.12 | 2.9 ± 0.076
KSSAFVIDIGASGCNVT [ARP7] | 1.81 ± 0.039 | 2.46 ± 0.063 | 2.17 ± 0.067 | 2.55 ± 0.045
KSSILTVLQKNSLLLDS [YML103C/NUP188] | 1.84 ± 0.056 | 1.71 ± 0.08 | 1.56 ± 0.075 | 2.36 ± 0.085
KSSNDTIEHAADITDGN [YCG1] | 2.98 ± 0.25 | 3.16 ± 0.2 | 3.23 ± 0.17 | 3.3 ± 0.15
KSSVPGSAELRNSYPAS [RPN3] | 2.66 ± 0.089 | 3.33 ± 0.076 | 2.73 ± 0.078 | 3.25 ± 0.095
KSVRILKNKAEYLKNCP [RPC40] | 3.13 ± 0.066 | 3.19 ± 0.064 | 3.12 ± 0.049 | 3.15 ± 0.046
KSYASLLAQLNGTVNNN [RPT3] | 2.61 ± 0.14 | 1.84 ± 0.11 | 2.2 ± 0.19 | 2.55 ± 0.12
KTADVKRQYVKQFLTKD [RPL20A] | 2.94 ± 0.087 | 2.92 ± 0.055 | 2.2 ± 0.07 | 2.6 ± 0.048
KTAYSIYLSQNELTDAI [RPN1] | 2.48 ± 0.037 | 2.28 ± 0.038 | 2.71 ± 0.037 | 2.08 ± 0.023
KTCIQGINSPLSSVALR [YJL039C/NUP192] |  | 1.41 ± 0.25 |  | 
KTDLELLVERLKEDDSS [RPN1] | 3.18 ± 0.11 | 3.3 ± 0.14 | 3.05 ± 0.1 | 3.18 ± 0.17
KTDPAGYYVGYKATATG [SCL1] | 2.98 ± 0.08 | 3.24 ± 0.065 | 3.21 ± 0.065 | 3.25 ± 0.1
KTICNLLISDTESNELI [IRR1] | 2.74 ± 0.063 | 2.73 ± 0.075 | 2.4 ± 0.055 | 2.68 ± 0.065
KTIEVTAEINCFMHLLV [RPN3] |  | 1.77 ± 0.26 | 1.78 ± 0.2 | 1.67 ± 0.19
KTITLEVESSDTIDNVK [RPS31] | 2.88 ± 0.1 | 3.08 ± 0.062 | 2.77 ± 0.12 | 2.64 ± 0.086
KTITSGLKYALATGNWG [RPB2] | 2.32 ± 0.066 | 2.33 ± 0.056 | 2.19 ± 0.079 | 2.31 ± 0.048
KTKWDRKPMGKRINFEK [POP1] | 2.84 ± 0.11 | 3.35 ± 0.075 | 2.75 ± 0.23 | 3 ± 0.17
KTLCARAVANRTDATFI [RPT1] | 1.39 ± 0.12 | 1.37 ± 0.12 | 1.26 ± 0.15 | 1.37 ± 0.18
KTLTGKTITLEVESSDT [RPS31] | 2.62 ± 0.048 | 2.73 ± 0.04 | 2.43 ± 0.065 | 1.97 ± 0.034
KTLVALEKQEDYIDNLV [RPC37] | 3.23 ± 0.11 | 2.97 ± 0.14 | 2.97 ± 0.16 | 3.07 ± 0.11
KTNFQDVILDYQTKKFY [REC8] | 1.62 ± 0.072 | 1.59 ± 0.051 | 1.16 ± 0.096 | 1.24 ± 0.039
KTWEKVTLDFGNIFADL [SMC2] | 2.81 ± 0.099 | 2.92 ± 0.12 | 3.39 ± 0.1 | 3.12 ± 0.13
KTYGISDDIISQVDPIT [FAS2] | 1.71 ± 0.16 | 1.1 ± 0.12 |  | 1.06 ± 0.13
KVAKRTKIKPFIKVVNY [RPL27A] | 2.9 ± 0.09 | 2.8 ± 0.096 | 2.86 ± 0.06 | 2.64 ± 0.076
KVGYTLPSHIISTSDVT [RPL4A] | 2.49 ± 0.048 | 2.69 ± 0.043 | 2.58 ± 0.039 | 2.5 ± 0.035

Sequence | protein stability index (doa10∆) | protein stability index (pdr5∆) | protein stability index (san1∆) | protein stability index (ubr1∆)
KVKPIRGFCQRLKGKQG [RPO31] | 2.79 ± 0.14 | 2.97 ± 0.16 | 2.79 ± 0.13 | 
KVPDSTYDMVGGLTKQI [RPT6] | 2.27 ± 0.15 | 2.63 ± 0.17 | 1.93 ± 0.22 | 2.57 ± 0.077
KVQDAIEEEIFDDSSRI [LIN1] | 3.07 ± 0.1 | 3.19 ± 0.11 | 3.16 ± 0.081 | 3.06 ± 0.069
KVQISKIPILAQHESFL [RPN9] | 1.97 ± 0.06 | 2.05 ± 0.045 | 2.16 ± 0.075 | 2.41 ± 0.037
KVTKIWSKESNYDCKVI [PRP28] | 2.93 ± 0.1 | 2.47 ± 0.059 | 2.61 ± 0.051 | 2.97 ± 0.058
KVTLNKETQQYELEFDT [BRR2] | 3.13 ± 0.058 | 3.01 ± 0.056 | 3.15 ± 0.035 | 3.19 ± 0.038
KVTSYDITGDIRNEGSD [ISW2] | 3.15 ± 0.17 | 3.04 ± 0.21 | 3.21 ± 0.14 | 
KVVEFAITHMIDALGTE [SCL1] | 2.03 ± 0.044 | 2.28 ± 0.038 | 2.27 ± 0.079 | 2.18 ± 0.023
KVVKAIRIYFTEKDDNK [NUT1] | 2.31 ± 0.13 | 2.67 ± 0.07 | 2.55 ± 0.12 | 2.97 ± 0.056
KWPEYVRLQRQKKILSI [RPL8B] | 1.18 ± 0.061 | 1.16 ± 0.056 | 1.14 ± 0.098 | 1.17 ± 0.039
KYKLISRIVEIFALCIY [YML103C/NUP188] | 1.58 ± 0.059 | 2.19 ± 0.055 | 1.86 ± 0.076 | 1.85 ± 0.059
KYLLTQRVFKPVDITMM [PRP8] | 2.98 ± 0.081 | 2.99 ± 0.11 | 3.02 ± 0.079 | 2.31 ± 0.1
KYPARRIHTNDNDIMNL [SSN3] | 2.83 ± 0.074 | 3.06 ± 0.072 | 2.98 ± 0.077 | 2.9 ± 0.059
KYYLEESNVNDSDMLTK [NUT1] | 3.13 ± 0.097 | 3.15 ± 0.082 | 3.31 ± 0.07 | 3.36 ± 0.086
LAAERKVTSTLLEQDTS [PRE9] | 2.46 ± 0.066 | 2.58 ± 0.082 | 2.65 ± 0.082 | 2.36 ± 0.089
LADRDEFIQDSAARGLS [ECM29] | 1.55 ± 0.092 | 1.31 ± 0.06 | 1.2 ± 0.14 | 2.01 ± 0.064
LAFYQVTPEEDEEEDEE [RPL22A] | 3.14 ± 0.1 | 3.45 ± 0.12 | 3.61 ± 0.06 | 3.38 ± 0.11
LAGKRGPKSGSTMGTPT [PGD1] | 3.35 ± 0.061 | 2.95 ± 0.05 | 2.6 ± 0.096 | 3.19 ± 0.046
LAGKVGSIRVHKSGKLS [RPC53] | 1.45 ± 0.058 | 1.59 ± 0.072 |  | 1.28 ± 0.06
LAIKDSKKRFAAIWTLC [RPO21] | 1.9 ± 0.045 | 1.92 ± 0.045 | 1.8 ± 0.072 | 2.1 ± 0.036
LAKILARSIDVEKGVNP [ECM29] | 1.21 ± 0.09 | 1.21 ± 0.062 | 1.4 ± 0.17 | 1.07 ± 0.071
LALGCHFQDQKNKKIEV [POP7] | 2.65 ± 0.18 | 2.97 ± 0.16 | 2.92 ± 0.12 | 2.29 ± 0.11
LALQRGATVFVNHLLLF [DPB4] | 1.42 ± 0.046 | 1.26 ± 0.036 | 1.25 ± 0.083 | 1.34 ± 0.039
LALTTLSEPLIKIGIRV [YCG1] | 1.81 ± 0.061 | 2.06 ± 0.047 | 1.74 ± 0.065 | 2.01 ± 0.057
LANYLTSALSELSGLIS [QCR2] | 1.48 ± 0.047 | 1.88 ± 0.044 | 1.84 ± 0.064 | 1.59 ± 0.033
